Assay results as given in article PMC10344781.

T1: single-chain mouse Trp2/H2-K^b (scpMHC), biotinylated (mouse | not stated)
T1 chain 1: SVYDFFVWL
T1 chain 2: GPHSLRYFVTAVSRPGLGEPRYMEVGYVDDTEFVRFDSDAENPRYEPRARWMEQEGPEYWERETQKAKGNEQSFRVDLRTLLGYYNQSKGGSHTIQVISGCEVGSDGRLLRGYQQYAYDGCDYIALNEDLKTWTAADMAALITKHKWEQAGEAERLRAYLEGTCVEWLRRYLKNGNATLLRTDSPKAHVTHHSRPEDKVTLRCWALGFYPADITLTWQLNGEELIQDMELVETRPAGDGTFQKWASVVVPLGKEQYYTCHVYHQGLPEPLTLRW
T1 chain 3: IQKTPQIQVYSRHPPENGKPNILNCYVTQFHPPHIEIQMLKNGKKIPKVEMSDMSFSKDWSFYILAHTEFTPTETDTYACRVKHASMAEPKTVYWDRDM


Target: T1, single-chain mouse Trp2/H2-K^b …
Experiment: SPR
Details: modification not given, biotin on the biotinylation tag (BirA)

Binder	Kd	koff	Kd (scFv)	koff (scFv)
mIgG2a clone 13 (wild-type mIgG2a) (protein) chain 1: EVLLQQSGPELVKPGASVKIPCKASGYTFTDYYMDWVKQSHGKSLEWIGLINPNNGGTVYNQKFKGKATLTVDKSSSAAYMEVRSLTSEDTAVYYCARKPYTGHPAWFAYWGQGTLVTVSA chain 2: DIQVTQSSSSFSVSLGDRVTITCKASEDIYNRLAWYQQKPGNAPRLLISGATSLETGVPDRFSGSGSRKDYTLIITSLQTEDVATYYCQQYYAFPLTFGAGTKLELK	2.5 nM	0.00143 s⁻¹	–	–
purified scFv13 (Trp2/H2-K^b TCRm scFv clone 13) (protein) chain 1: EVLLQQSGPELVKPGASVKIPCKASGYTFTDYYMDWVKQSHGKSLEWIGLINPNNGGTVYNQKFKGKATLTVDKSSSAAYMEVRSLTSEDTAVYYCARKPYTGHPAWFAYWGQGTLVTVSA chain 2: DIQVTQSSSSFSVSLGDRVTITCKASEDIYNRLAWYQQKPGNAPRLLISGATSLETGVPDRFSGSGSRKDYTLIITSLQTEDVATYYCQQYYAFPLTFGAGTKLELK	–	–	8.6 nM	0.00121 s⁻¹
